Laboratory results from article PMC5995851, “Conformational rearrangements of the C1 ring in KaiC measure the timing of assembly with KaiB” (Scientific Reports, 2018).
Changes are numbered by the printed parent chain.

Key:
[1] = biological target: T1, KaiC^S157W-D/T (S157W/S431D, pS/T mimic) (Synechococcus elongatus, UniProt Q79PF4 1-519, S157W | S431D); assay: tryptophan (W157) fluorescence quenching; KaiC^S157W phospho-mimicking mutants with or without an equimolar concentration of KaiB (monomer basis), spectra after 24 h incubation at 30 °C; 50 mM Tris, 150 mM NaCl, 5 mM MgCl2, 0.5 mM EDTA, 1 mM ATP, pH 8.0; excitation 295 nm; conditions: both partners purified
T1 construct: Circadian clock protein KaiC, Synechococcus elongatus, with C1 and C2 domains; Trp probe S157W and phospho-mimicking S431D
T1 sequence: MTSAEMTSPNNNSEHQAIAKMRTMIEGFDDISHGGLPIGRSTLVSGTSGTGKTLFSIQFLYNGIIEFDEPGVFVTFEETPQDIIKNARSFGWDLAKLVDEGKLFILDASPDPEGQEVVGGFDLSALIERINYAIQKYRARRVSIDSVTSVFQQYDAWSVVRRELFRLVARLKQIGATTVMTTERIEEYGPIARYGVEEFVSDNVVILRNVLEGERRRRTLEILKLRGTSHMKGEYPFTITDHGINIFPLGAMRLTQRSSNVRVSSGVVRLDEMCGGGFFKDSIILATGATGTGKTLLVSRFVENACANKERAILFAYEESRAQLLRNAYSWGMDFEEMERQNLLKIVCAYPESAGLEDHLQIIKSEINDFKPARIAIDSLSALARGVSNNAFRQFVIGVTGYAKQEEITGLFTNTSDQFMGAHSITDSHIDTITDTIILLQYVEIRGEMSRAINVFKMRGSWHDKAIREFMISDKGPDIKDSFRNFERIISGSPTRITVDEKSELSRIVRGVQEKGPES

[2] = biological target: T2, KaiC^S157W-D/E (S157W/S431D/T432E, pS/pT mimic) (Synechococcus elongatus, UniProt Q79PF4 1-519, S157W | S431D | T432E); assay: other fluorescence titration; time-resolved W157 fluorescence at 30 °C after addition of KaiB to KaiC pre-incubated at 30 °C for at least 2 h; KaiC^S157W-D/E fixed at 3.5 µM, KaiB equimolar or 0.9-10.5 µM; 1 mM ATP buffer, pH 8.0; conditions: both partners purified
T2 construct: Circadian clock protein KaiC, Synechococcus elongatus, with C1 and C2 domains; Trp probe S157W and phospho-mimicking S431D/T432E
T2 sequence: T1 sequence with T432E

B1: KaiB (wild type) (natural protein, Synechococcus elongatus, UniProt Q79PF5 1-102, looked up)
chain: MSPRKTYILKLYVAGNTPNSVRALKTLKNILEVEFQGVYALKVIDVLKNPQLAEEDKILATPTLAKVLPLPVRRIIGDLSDREKVLIGLDLLYGELQDSDDF
notes: Circadian clock protein KaiB, Synechococcus elongatus, wild type
binding result [1]: binds | t1/2 of the FIapp decrease after addition of equimolar KaiB [2]: 2.4 h
